IntAct's records for PubMed 27309818

B1: Sperm-egg fusion protein Juno (Homo sapiens), A6ND01-1 (parent)
chain: MACWWPLLLELWTVMPTWAGDELLNICMNAKHHKRVPSPEDKLYEECIPWKDNACCTLTTSWEAHLDVSPLYNFSLFHCGLLMPGCRKHFIQAICFYECSPNLGPWIQPVGSLGWEVAPSGQGERVVNVPLCQEDCEEWWEDCRMSYTCKSNWRGGWDWSQGKNRCPKGAQCLPFSHYFPTPADLCEKTWSNSFKASPERRNSGRCLQKWFEPAQGNPNVAVARLFASSAPSWELSYTIMVCSLFLPFLS
B2: Izumo sperm-egg fusion protein 1 (Homo sapiens), Q8IYV9-1 (parent)
chain: MGPHFTLLCAALAGCLLPAEGCVICDPSVVLALKSLEKDYLPGHLDAKHHKAMMERVENAVKDFQELSLNEDAYMGVVDEATLQKGSWSLLKDLKRITDSDVKGDLFVKELFWMLHLQKETFATYVARFQKEAYCPNKCGVMLQTLIWCKNCKKEVHACRKSYDCGERNVEVPQMEDMILDCELNWHQASEGLTDYSFYRVWGNNTETLVSKGKEATLTKPMVGPEDAGSYRCELGSVNSSPATIINFHVTVLPKMIKEEKPSPNIVTPGEATTESSISLQPLQPEKMLASRLLGLLICGSLALITGLTFAIFRRRKVIDFIKSSLFGLGSGAAEQTQVPKEKATDSRQQ

Variants of: B1
Settings: with IZUMO1, Q8IYV9-1

Effect of a mutation on the interaction, disrupting interaction strength:
L81A

Effect of a mutation on the interaction, decreasing interaction strength:
K163E
K163A
E45A
E45K
W62A

Variants of: B2
Settings: with IZUMO1R

Effect of a mutation on the interaction, disrupting interaction strength:
W148A

Effect of a mutation on the interaction, decreasing interaction strength:
H157A
R160A
R160E
E71K
E71A
